# In the Immune Epitope Database (IEDB):
# Tests used:
# [1] = target: HLA-A*01:01; experiment: IEDB peptide-MHC binding, purified MHC/competitive/radioactivity; ≥ and ≤ were set here for values at or beyond the usual limits of such assays; conditions: source organism: Triticum aestivum
# [2] = target: HLA-B*08:01; experiment: as above; conditions: source organism: Triticum aestivum
IC50 [1],IC50 [2],Sequence
≥ 100 µM,303 nM,LEAIRSLVL
≥ 100 µM,91 nM,LLSPRGKEL
17.1 µM,353 nM,QLEAIRSLV
≥ 100 µM,7.8 nM,FLLQQCKPV
33.5 µM,25 nM,LLQQSKPASL
≥ 100 µM,162 nM,VMRQQCCQQL
0.103 µM,≥ 100000 nM,SSQVLQQSTY
≥ 100 µM,73 nM,QGMHILLPL
≥ 100 µM,286 nM,WLQQQLVPQL
≥ 100 µM,465 nM,CAAIHTIIH
≥ 100 µM,161 nM,LAMAMKIATA
≥ 100 µM,112 nM,FPQQQRPFI
≥ 100 µM,72 nM,LQQCKPVSL
0.365 µM,≥ 100000 nM,VSFQQPQQQY
≥ 100 µM,223 nM,MKTFLILAL
≥ 100 µM,246 nM,LIPCRDVVL
≥ 100 µM,5.2 nM,MAMKIATAA
≥ 100 µM,14 nM,LLQQCKPVSL
≥ 100 µM,48 nM,AMAMKIATA
≥ 100 µM,368 nM,MNIASASRL
